Results from patent US20170267783A1 (published 2017).
Residue numbers refer to the chain shown, from its start. Blank lines part the entries; values can stand above or below the binder they belong to.

Legend:
[1] = molecular target: extracellular matrix (ECM; BD Matrigel); assay: ECL on Matrigel-coated plate, signal divided by that of MRAH-G1d/MRAL-k0
soluble human CD3ε chain = molecular target: T1, soluble human CD3ε chain (human, UniProt P07766 23-126); assay: SPR (Biacore)
T1 construct: also called CD3 epsilon
T1 sequence (P07766 23-126 limits assumed): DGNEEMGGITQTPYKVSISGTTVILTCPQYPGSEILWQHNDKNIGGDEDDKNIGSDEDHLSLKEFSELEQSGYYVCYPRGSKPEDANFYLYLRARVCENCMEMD

ECM binding ratio (standard = 1) (ratio to standard antibody) [1]: 50.4
B1: TR01H040-E2702GsKsc/H0610-E2704sEpsc/L0208-k0 (bispecific antibody, human IgG4 S228P, kappa, N297A)
heavy 1: QVQLVESGGGLVQPGRSLRLSCAASGFTFSNAWMHWVRQAPGKGLEWVAQIKDKSQNYATYYAESVKGRFTISRADSKNSIYLQMNSLKTEDTAVYYCRYVHYSASYGVDAWGQGTTVTVSSASTKGPSVFPLAPCSRSTSESTAALGCLVKDYFPEPVTVSWNSGALTSGVHTFPAVLQSSGLYSLSSVVTVPSSSLGTKTYTCNVDHKPSNTKVDKRVESKYGPPCPPCPAPEFRGGPKVFLFPPKPKDTLMISRTPEVTCVVVDVSQEDPEVQFNWYVDGVEVHNAKTKPREEQFASTYRVVSVLTVLHQDWLNGKEYKCKVSNKGLPSSIEKTISKAKGQPREPQVYTLPPSQKEMTKNQVSLTCLVKGFYPSDIAVEWESNGQPENNYKTTPPVLDSDGSFFLYSKLTVDKSRWQEGNVFSCSVMHEALHNRYTQKSLSLSP
heavy 2: QVQLVQSGAEVKKPGASVKVSCKASGYTFTDYEMHWIRQPPGQGLEWIGAIDGKTPDTAYSQKFKGRVTLTADKSTSTAYMELSSLTSEDTAVYYCTRFYSYTYWGQGTLVTVSSASTKGPSVFPLAPCSRSTSESTAALGCLVKDYFPEPVTVSWNSGALTSGVHTFPAVLQSSGLYSLSSVVTVPSSSLGTQTYTCNVDHKPSNTKVDKRVESKYGPPCPPCPAPEFRGGPKVFLFPPKPKDTLMISRTPEVTCVVVDVSQEDPEVQFNWYVDGVEVHNAKTKPREEQFASTYRVVSVLTVLHQDWLNGKEYKCKVSNKGLPSSIEKTISKAKGQPREPQVYTLPPSQEEMTKNQVSLTCLVKGFYPSDIAVEWESNGQPENNYKTTPPVLDSDGSFFLYSKLTVDKSRWQEGNVFSCSVMHEALHNHYTQESLSLSP
light: DIVMTQSPLSLPVTPGEPASISCRSSQSPVHSNRNTYLHWYQQKPGQAPRLLIYKVSNRFWGVPDRFSGSGSGTDFTLKISRVEAEDVGVYYCYQGTQVPYTFGQGTKLEIKRTVAAPSVFIFPPSDEQLKSGTASVVCLLNNFYPREAKVQWKVDNALQSGNSQESVTEQDSKDSTYSLSSTLTLSKADYEKHKVYACEVTHQGLSSPVTKSFNRGEC

ECM binding ratio (standard = 1) (ratio to standard antibody) [1]: 0.5
B2: TR01H067-E2702GsKsc/GCH054-E2704sEpsc/L0201-k0 (bispecific antibody, human IgG4 S228P, kappa, N297A)
heavy 1: B1 heavy 1 with A75D, I81L, S104A
heavy 2: B1 heavy 2 with K19T, Q43E, K54E, Q62E
light: B1 light with S28P, W61S, Y94G

ECM binding ratio (standard = 1) (ratio to standard antibody) [1]: 15.5
B3: TR01H040-E2702GsKsc/H0610-E2704sEpsc/L0211-k0 (bispecific antibody, human IgG4 S228P, kappa, N297A)
heavy 1: B1 heavy 1
heavy 2: B1 heavy 2
light: B1 light with S28P, W61S

ECM binding ratio (standard = 1) (ratio to standard antibody) [1]: 0.7
B4: TR01H109-E2702GsKsc/GCH065-E2704sEpsc/L0011-k0 (bispecific antibody, human IgG4 S228P, kappa, N297A)
heavy 1: B1 heavy 1 with Y62V, A75D, I81L, S104A, S106G
heavy 2: B1 heavy 2 with K19T, Q43E, K54P, Q62E
light: B1 light with S28P, P29L, W61S, Y94G

ECM binding ratio (standard = 1) (ratio to standard antibody) [1]: 0.8
B5: TR01H040-E2702GsKsc/H0610-E2704sEpsc/L0000-k0 (bispecific antibody, human IgG4 S228P, kappa, N297A)
heavy 1: B1 heavy 1
heavy 2: B1 heavy 2
light: B1 light with P29L, W61S, Y94G

ECM binding ratio (standard = 1) (ratio to standard antibody) [1]: 1.6
B6: TR01H113-E2702GsKsc/GCH094-E2704sEpsc/L0011-k0 (bispecific antibody, human IgG4 S228P, kappa, N297A)
heavy 1: B1 heavy 1 with L11V, R16G, Y62V, S104A, S106G, A111I
heavy 2: B1 heavy 2 with K19T, I37V, P40A, Q43E, I48M, K54E, Q62E
light: B1 light with S28P, P29L, W61S, Y94G

ECM binding ratio (standard = 1) (ratio to standard antibody) [1]: 0.4
B7: TR01H109-E2702GsKsc/GCH094-E2704sEpsc/L0011-k0 (bispecific antibody, human IgG4 S228P, kappa, N297A)
heavy 1: B1 heavy 1 with Y62V, A75D, I81L, S104A, S106G
heavy 2: B1 heavy 2 with K19T, I37V, P40A, Q43E, I48M, K54E, Q62E
light: B1 light with S28P, P29L, W61S, Y94G

ECM binding ratio (standard = 1) (ratio to standard antibody) [1]: 0.6
B8: TR01H067-E2702GsKsc/GCH054-E2704sEpsc/L0222-k0 (bispecific antibody, human IgG4 S228P, kappa, N297A)
heavy 1: B1 heavy 1 with A75D, I81L, S104A
heavy 2: B1 heavy 2 with K19T, Q43E, K54E, Q62E
light: B1 light with L38I, H39Q, W61S

ECM binding ratio (standard = 1) (ratio to standard antibody) [1]: 2.5
B9: TR01H113-E2702GsKsc/GCH065-E2704sEpsc/L0011-k0 (bispecific antibody, human IgG4 S228P, kappa, N297A)
heavy 1: B1 heavy 1 with L11V, R16G, Y62V, S104A, S106G, A111I
heavy 2: B1 heavy 2 with K19T, Q43E, K54P, Q62E
light: B1 light with S28P, P29L, W61S, Y94G

ECM binding ratio (standard = 1) (ratio to standard antibody) [1]: 0.7
B10: TR01H082-E2702GsKsc/GCH094-E2704sEpsc/L0011-k0 (bispecific antibody, human IgG4 S228P, kappa, N297A)
heavy 1: B1 heavy 1 with A75D, I81L, S104A, S106G
heavy 2: B1 heavy 2 with K19T, I37V, P40A, Q43E, I48M, K54E, Q62E
light: B1 light with S28P, P29L, W61S, Y94G

ECM binding ratio (standard = 1) (ratio to standard antibody) [1]: 3.3
B11: TR01H067-E2702GsKsc/GCH054-E2704sEpsc/L0212-k0 (bispecific antibody, human IgG4 S228P, kappa, N297A)
heavy 1: B1 heavy 1 with A75D, I81L, S104A
heavy 2: B1 heavy 2 with K19T, Q43E, K54E, Q62E
light: B1 light with S25P, W61S

ECM binding ratio (standard = 1) (ratio to standard antibody) [1]: 1.2
B12: TR01H084-E2702GsKsc/GCH094-E2704sEpsc/L0011-k0 (bispecific antibody, human IgG4 S228P, kappa, N297A)
heavy 1: B1 heavy 1 with L11V, R16G, S104A, S106G, A111I
heavy 2: B1 heavy 2 with K19T, I37V, P40A, Q43E, I48M, K54E, Q62E
light: B1 light with S28P, P29L, W61S, Y94G

ECM binding ratio (standard = 1) (ratio to standard antibody) [1]: 0.8
B13: TR01H040-E2702GsKsc/H0610-E2704sEpsc/L0203-k0 (bispecific antibody, human IgG4 S228P, kappa, N297A)
heavy 1: B1 heavy 1
heavy 2: B1 heavy 2
light: B1 light with L38I, W61S, Y94G

ECM binding ratio (standard = 1) (ratio to standard antibody) [1]: 0.3
B14: TR01H113-E2702sKsc/GCH065-E2704sEpsc/L0011-k0 (bispecific antibody, human IgG4 S228P, kappa, N297A)
heavy 1: B1 heavy 1 with L11V, R16G, Y62V, S104A, S106G, A111I, R437H
heavy 2: B1 heavy 2 with K19T, Q43E, K54P, Q62E
light: B1 light with S28P, P29L, W61S, Y94G

ECM binding ratio (standard = 1) (ratio to standard antibody) [1]: 1.7
B15: TR01H082-E2702GsKsc/GCH065-E2704sEpsc/L0011-k0 (bispecific antibody, human IgG4 S228P, kappa, N297A)
heavy 1: B1 heavy 1 with A75D, I81L, S104A, S106G
heavy 2: B1 heavy 2 with K19T, Q43E, K54P, Q62E
light: B1 light with S28P, P29L, W61S, Y94G

ECM binding ratio (standard = 1) (ratio to standard antibody) [1]: 0.8
B16: TR01H040-E2702GsKsc/H0610-E2704sEpsc/L0201-k0 (bispecific antibody, human IgG4 S228P, kappa, N297A)
heavy 1: B1 heavy 1
heavy 2: B1 heavy 2
light: B1 light with S28P, W61S, Y94G

ECM binding ratio (standard = 1) (ratio to standard antibody) [1]: 1.3
B17: TR01H084-E2702GsKsc/GCH065-E2704sEpsc/L0011-k0 (bispecific antibody, human IgG4 S228P, kappa, N297A)
heavy 1: B1 heavy 1 with L11V, R16G, S104A, S106G, A111I
heavy 2: B1 heavy 2 with K19T, Q43E, K54P, Q62E
light: B1 light with S28P, P29L, W61S, Y94G

ECM binding ratio (standard = 1) (ratio to standard antibody) [1]: 4.4
B18: TR01H040-E2702GsKsc/H0610-E2704sEpsc/L0204-k0 (bispecific antibody, human IgG4 S228P, kappa, N297A)
heavy 1: B1 heavy 1
heavy 2: B1 heavy 2
light: B1 light with W61R, Y94G

ECM binding ratio (standard = 1) (ratio to standard antibody) [1]: 15.4
B19: TR01H040-E2702GsKsc/H0610-E2704sEpsc/L0206-k0 (bispecific antibody, human IgG4 S228P, kappa, N297A)
heavy 1: B1 heavy 1
heavy 2: B1 heavy 2
light: B1 light with W61S

ECM binding ratio (standard = 1) (ratio to standard antibody) [1]: 1.1
B20: TR01H082-E2702GsKsc/GCH094-E2704sEpsc/L0201-k0 (bispecific antibody, human IgG4 S228P, kappa, N297A)
heavy 1: B1 heavy 1 with A75D, I81L, S104A, S106G
heavy 2: B1 heavy 2 with K19T, I37V, P40A, Q43E, I48M, K54E, Q62E
light: B1 light with S28P, W61S, Y94G

ECM binding ratio (standard = 1) (ratio to standard antibody) [1]: 7.4
B21: TR01H040-E2702GsKsc/H0610-E2704sEpsc/L0209-k0 (bispecific antibody, human IgG4 S228P, kappa, N297A)
heavy 1: B1 heavy 1
heavy 2: B1 heavy 2
light: B1 light with L38I, W61S

Kd (soluble human CD3ε chain): 4.76 nM
B22: TR01H002-E22Hh/GLS3108-k0/GL4-E22Hk/H0000-E22L (bispecific antibody, human IgG1, kappa, L234A L235A, N297A)
heavy 1: QVQLVESGGGVVQPGRSLRLSCAASGFTFSNAWMHWVRQAPGKGLEWVAQIKAKSNNYKKYYAESVKGRFTISRDDSKNSLYLQMNSLKTEDTAVYYCRYVHYYYYYGVQAWGQGTTVTVSSASTKGPSVFPLAPSSKSTSGGTAALGCLVKDYFPEPVTVSWNSGALTSGVHTFPAVLQSSGLYSLSSVVTVPSSSLGTQTYICNVNHKPSNTKVDKKVEPKSCDKTHTCPPCPAPEAAGGPSVFLFPPKPKDTLMISRTPEVTCVVVDVSHEDPEVKFNWYVDGVEVHNAKTKPREEQYASTYRVVSVLTVLHQDWLNGKEYKCKVSNKALPAPIEKTISKAKGQPREPQVYTLPPSRCELTKNQVSLSCAVKGFYPSDIAVEWESNGQPENNYKTTPPVLDSDGSFFLVSKLTVDKSRWQQGNVFSCSVMHEALHNHYTQKSLSLSPDYKDDDDK
light 1: B1 light with P29L, H39S, W61S, Y94G
heavy 2: DIVMTQSPLSLPVTPGEPASISCRSSQSLVHSNRNTYLHWYQQKPGQAPRLLIYKVSNRFSGVPDRFSGSGSGTDFTLKISRVEAEDVGVYYCSQNTHVPPTFGQGTKLEIKSSASTKGPSVFPLAPSSKSTSGGTAALGCLVKDYFPEPVTVSWNSGALTSGVHTFPAVLQSSGLYSLSSVVTVPSSSLGTQTYICNVNHKPSNTKVDKKVEPKSCDKTHTCPPCPAPEAAGGPSVFLFPPKPKDTLMISRTPEVTCVVVDVSHEDPEVKFNWYVDGVEVHNAKTKPREEQYASTYRVVSVLTVLHQDWLNGKEYKCKVSNKALPAPIEKTISKAKGQPREPQVCTLPPSRDELTKNQVSLWCLVKGFYPSDIAVEWESNGQPENNYKTTPPVLDSDGSFFLYSKLTVDKSRWQQGNVFSCSVMHEALHNHYTQKSLSLSPHHHHHHHH
light 2: QVQLVQSGAEVKKPGASVKVSCKASGYTFTDYEMHWIRQPPGQGLEWIGAIDPKTGDTAYSQKFKGRVTLTADKSTSTAYMELSSLTSEDTAVYYCTRFYSYTYWGQGTLVTVSSASVAAPSVFIFPPSDEQLKSGTASVVCLLNNFYPREAKVQWKVDNALQSGNSQESVTEQDSKDSTYSLSSTLTLSKADYEKHKVYACEVTHQGLSSPVTKSFNRGEC
notes: CD3 arm + GPC3 arm with VH/VL exchanged
